Target: Recombinant Xenopus laevis Chromosomal Passenger Complex (INCENP, Aurora B 33-368, Survivin-B, Borealin/Dasra-A) (Xenopus laevis) (UniProt Q6GPL3)
Assay: partitioning into condensates

UniProt Q6GPL3, sequence (Q6GPL3 whole entry, looked up, tested part not stated, one chain of several): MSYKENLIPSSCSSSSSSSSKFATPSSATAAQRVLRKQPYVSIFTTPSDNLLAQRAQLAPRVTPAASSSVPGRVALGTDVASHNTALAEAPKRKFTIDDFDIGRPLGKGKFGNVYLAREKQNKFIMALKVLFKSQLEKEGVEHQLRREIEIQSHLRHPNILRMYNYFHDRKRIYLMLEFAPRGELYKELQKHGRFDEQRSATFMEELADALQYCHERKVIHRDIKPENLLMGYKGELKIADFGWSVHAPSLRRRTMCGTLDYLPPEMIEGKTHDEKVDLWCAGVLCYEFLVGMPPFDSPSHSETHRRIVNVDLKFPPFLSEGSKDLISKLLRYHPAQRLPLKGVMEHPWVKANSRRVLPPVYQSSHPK

“α/β-tubulin dimers (from UniProt Q6B856 1-445) (complex)” gave an enrichment in condensates (partition coefficient) of 5 fold.
